In US8673313B2, “Cell penetrating peptides and its use fused to biomolecules with therapeutic action” (priority 2007, dated 2014):

Key:
[1] = tested on: TC-1 tumor cell line expressing the HPV16 E7 protein; test: Treatment of established TC-1 tumors in mice (Example 8); type: in vivo, Mice C57BL/6; conditions: two immunizations every 14 days from day 10, volume at the 30 days, p<0.01 vs E7, LALF and PBS, FIG. 7
Text: In order to observe the regression of established tumors from the treatment with the recombinant protein fusion LALF-E7, the tumor cell line TC-1, was used. The TC-1 tumor cell line expressing the HPV16 E7 protein was derived from primary lung cells of C57Bl/6 mice by immortalization and transformation with HPV16 E6 and E7 genes and an activated human C-Ha-ras gene as described in Lin et al. (1996)) Treatment of established tumors with a novel vaccine that enhances major histocompatibility class II presentation of tumor antigen. Cancer Res. 56:21-26. For tumor inoculation, TC-1 cells, supplied by Dr. T.-C. Wu (The Johns Hopkins Medical Institutions, Baltimore, Md.), were grown to 60-70% confluence in RPMI1640 medium supplemented with 10% fetal calf serum (Hyclone, Logan, Utah), nonessential amino acids, glutamine, pyruvate, gentamycin, beta-mercaptoethanol and 0.4 mg/mL Geneticin at 37° C. Cells were harvested by trypsinization and resuspended in Hank's buffer solution at […].
Mice C57BL/6 was inoculated with 2×10^5 cells by subcutaneous injection in right leg in volumes of 0.2 mL. […] The tumor kinetic in the different groups was followed by the tumor volume which was determined using electronic calipers and taking the measures in two orthogonal dimensions. Tumor volumes (mm^3) were calculated from these measurements according to (length×width^2)/2. […]

J774 cells [2] = test: Fluorescence microscopy: internalization of the cargo protein E7 to the cell; type: cell-based; conditions: 1.66 μM protein, J774, 37° C., 30 min, 1 hour and 2 hours, FIG. 4
Method: Cells J774 grown on sterile glass cover slips of 22 mm overnight at 37° C. and 5% of CO2 with RPMI 1640, 10% inactivated calf fetal serum and 2 mM de glutamine. Then, different glass cover slips incubated with 1.66 μM fusion protein LALF-E7, 1.66 μM of protein E7 and PBS (as negative control) a 37° C. per 30 min, 1 hour and 2 hours. CasKi cells (human cells expressing HPV 16) grown as positive control in the same experimental conditions.
After incubation the cells were washed briefly with PBS and fix cells by 4% paraformaldehide per 20 min at room temperature. Wash in three changes of PBS. The permeabilization of the cells was with 0.5% Tritón X-100 for 15 min a room temperature. Wash in three changes of PBS. Then, the cells were incubating for 1 hour in 1% blocking SFB in PBS at room temperature. Wash in three changes of PBS. Cells were incubated with goat IgG anti E7/HPV 16 polyclonal antibody (Santa Cruz) diluted in PBS 1:50. Wash extensively with PBS. Incubate with anti-goat-fluorescein IgG polyclonal antibody (Santa Cruz) diluted in PBS 1:50 for 45 minutes in a dark chamber. Wash extensively with PBS. Mount cover slip with aqueous mounting medium. Examine using a fluorescence microscope with appropriate filters.

J774 cells [3] = test: Western blot: internalization of the cargo protein E7 to the cell; type: cell-based; conditions: 25 μM protein, J774, 4 hours at 37° C., FIG. 5
Method: The cells J774 grown overnight at 37° C. and 5% of CO2 with RPMI 1640, 10% inactivated calf fetal serum and 2 mM de glutamine. After that, the cell were aliquoted in tubes with 5×10^6 cells each and incubated with 25 μM of fusion protein LALF-E7, 25 μM of protein E7 and PBS during 4 hours at 37° C. The sedimentation of the cells was made by a centrifugation to 1000 rpm by 10 minutes. Wash pellet in three changes of PBS. Cells were ruptured in 100 μL of RIPA buffer (Promega) mixed in vortex per 10 second and 2 min in ice. The sedimentation of the broken cells was made by a centrifugation to 12000 rpm by 15 minutes. Protein concentration was determined to the cell extract and rum 10 μg of total protein in 15% polyacrilamide gel. Subsequently the gel was transferred to a nitrocellulose membrane. The membrane was incubated for 2 hours at room temperature with an IgG goat polyclonal antibody anti-E7 HPV 16 (Santa Cruz) diluted in PBS (1:100). Wash in three changes of PBS. Subsequently, the membrane was incubated for 45 minutes at room temperature and in a dark room with an anti-goat IgG peroxidase conjugate (Sigma) diluted in PBS (1:5000). Wash in three changes of PBS. Finally the ECL system from Amersham Pharmacia Biotech was used.

B1: LALF-E7: recombinant fusion of CPP LALF to E7 protein of HPV 16, cysteine per glycine in Rb site (SEQ ID N0. 9 y 10) (protein)
chain: MAEFHYRIKPTFRRLKWKYKGKFWKASHGDTPTLHEYMLDLQPETTDLYGYEQLNDSSEEEDEIDGPAGQAEPDRAHYNIVTFCCKCDSTLRLCVQSTHVDIRTLEDLLMGTLGIVCPICSQKPGSRAHHHHHH
modifications: Artificial Sequence Description Protein fusion CPP LALF-E7
- effect on growth of established tumors (tumor volume) [1]: full inhibition of growth of established tumors
- internalization of E7 (fluorescent cells, anti-E7 antibody) (J774 cells [2]): fluorescent cells
- detection of protein in cell extract by anti-E7 antibody (Western blot) (J774 cells [3]): recognized by the anti-E7 antibody
